The values below come from US7488590B2, “Modified peptides as therapeutic agents” (Amgen Inc., priority 1998, dated 2009).

In assay [1] the target is T1, human mpl receptor (Homo sapiens, UniProt P40238).
T1 construct: murine 32D cells transfected with the full-length c-Mpl; expressed in transfected cells; host or cells: IL-3 dependent clone of murine 32D cells
T1 sequence (P40238 26-635): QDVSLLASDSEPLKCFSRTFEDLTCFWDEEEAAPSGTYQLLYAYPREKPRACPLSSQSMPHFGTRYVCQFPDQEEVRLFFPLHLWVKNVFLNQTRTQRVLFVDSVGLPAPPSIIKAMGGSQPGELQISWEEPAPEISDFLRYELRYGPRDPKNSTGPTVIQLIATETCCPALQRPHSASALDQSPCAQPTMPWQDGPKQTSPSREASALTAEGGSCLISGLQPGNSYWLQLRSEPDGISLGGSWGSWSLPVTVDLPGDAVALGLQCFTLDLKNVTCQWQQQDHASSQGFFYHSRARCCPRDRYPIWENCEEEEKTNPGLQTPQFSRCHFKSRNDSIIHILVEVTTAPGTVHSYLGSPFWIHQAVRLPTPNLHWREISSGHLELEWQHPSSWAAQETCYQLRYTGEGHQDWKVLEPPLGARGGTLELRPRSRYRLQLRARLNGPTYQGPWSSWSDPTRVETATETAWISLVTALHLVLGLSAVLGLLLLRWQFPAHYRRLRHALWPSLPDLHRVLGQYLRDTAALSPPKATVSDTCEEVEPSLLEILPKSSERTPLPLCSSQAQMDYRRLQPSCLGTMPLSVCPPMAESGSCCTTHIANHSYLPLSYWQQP
Description: TPO in vitro bioassay: mitogenic (cell-proliferation) assay in IL-3 dependent murine 32D cells transfected with human mpl receptor. The class given is cell-based. How it is done:
Bioactivity assay. The TPO in vitro bioassay is a mitogenic assay utilizing an IL-3 dependent clone of murine 32D cells that have been transfected with human mpl receptor. This assay is described in greater detail in WO 95/26746. Cells are maintained in MEM medium containing 10% Fetal Clone II and 1 ng/ml mIL-3. Prior to sample addition, cells are prepared by rinsing twice with growth medium lacking mIL-3. An extended twelve point TPO standard curve is prepared, ranging from […]. Four dilutions, estimated to fall within the linear portion of the standard curve, (100 to 125 pg/ml), are prepared for each sample and run in triplicate. A volume of 100 μl of each dilution of sample or standard is added to appropriate wells of a 96 well microtiter plate containing 10,000 cells/well. After forty-four hours at 37° C. and 10% CO2, MTS (a tetrazolium compound which is bioreduced by cells to a formazan) is added to each well. Approximately six hours later, the optical density is read on a plate reader at 490 nm. A dose response curve (log TPO concentration vs. O.D.-Background) is generated and linear regression analysis of points which fall in the linear portion of the standard curve is performed. Concentrations of unknown test samples are determined using the resulting linear equation and a correction for the dilution factor.
The resulting peptides are readily accessible by conventional solid phase peptide synthesis methods (Merrifield (1963), J. Amer. Chem. Soc. 85: 2149) with either Fmoc or t-Boc chemistry. […] This might be due to differences in the conditions used in the two assays. […] It is interesting to note that a wide range of length is tolerated by the linker. The optimal linker between tandem peptides with the selected TMP monomers apparently is composed of 8 glycines.

Assay [2] deals with T2, IL-1R (Homo sapiens, UniProt P14778).
T2 sequence (P14778 18-569): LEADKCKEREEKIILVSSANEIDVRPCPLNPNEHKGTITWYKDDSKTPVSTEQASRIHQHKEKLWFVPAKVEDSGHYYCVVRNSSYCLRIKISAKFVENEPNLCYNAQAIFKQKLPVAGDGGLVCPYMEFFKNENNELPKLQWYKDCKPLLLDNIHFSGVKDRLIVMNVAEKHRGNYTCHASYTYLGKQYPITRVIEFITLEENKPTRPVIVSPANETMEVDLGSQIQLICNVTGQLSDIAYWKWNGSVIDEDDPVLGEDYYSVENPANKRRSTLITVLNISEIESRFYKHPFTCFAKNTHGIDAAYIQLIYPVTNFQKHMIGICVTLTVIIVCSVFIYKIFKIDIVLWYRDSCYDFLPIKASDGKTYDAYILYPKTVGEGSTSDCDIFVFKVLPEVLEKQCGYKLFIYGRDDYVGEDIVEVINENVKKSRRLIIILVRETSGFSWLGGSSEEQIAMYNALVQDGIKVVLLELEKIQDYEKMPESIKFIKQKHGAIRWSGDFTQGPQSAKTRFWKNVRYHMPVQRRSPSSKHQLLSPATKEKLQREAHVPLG
Nature of the assay: IL-1 Receptor Binding competition assay (IGEN system). The note with it: 0.4 nM biotin-IL-1R + 15 nM IL-1-TAG, competitor 3 uM to 1.5 pM. The method, then:
Characterization of Fc-IL-1 antagonist peptide and IL-1 antagonist peptide-Fc activity. IL-1 Receptor Binding competition between IL-1β, IL-1RA and Fc-conjugated IL-1 peptide sequences was carried out using the IGEN system. Reactions contained 0.4 nM biotin-IL-1R+15 nM IL-1-TAG+3 uM competitor+20 ug/ml streptavidin-conjugate beads, where competitors were IL-1RA, Fc-IL-1 antagonist, IL-1 antagonist-Fc). Competition was assayed over a range of competitor concentrations from 3 uM to 1.5 pM.

The mark [3] stands for this setting: TPO-dependent cell-proliferation assay, 32D cells transfected with c-Mpl.

One may read the EC50 as the concentration that produces a half-maximal response. As usually defined, the Ki is the equilibrium dissociation constant of an inhibitor or competing ligand from its target.

Where “and” joins values, the source holds several entries; their conditions need not be identical. Equal entries are not always repeated. Entries after “also recorded” stand apart in the source; their conditions may differ. Where no end group is shown, it is not given here. Side-chain parts run from the residue outwards. maleimide = maleimide-containing PEG attached to the Cys side-chain thiol; PEG = not defined here

For the substance “peptide 20: PEGylated peptide (SEQ ID NO: 4); Cys side chain in linker modified by maleimide-containing PEG (IEGPTLRQWLAARAGGGC([maleimide-PEG])GGGGIEGPTLRQWLAARA; reading uncertain)”, the “in vitro bioactivity (in words)” value in assay [1] (setting [3]) is “even higher in vitro bioactivity as compared to their unpegylated counterparts”.

Take “IL-1RA: competitor in the IL-1 receptor binding competition assay”: in assay [2], the EC50 was found to be 2.65 nM and the Ki is 1.41 nM.

For “peptide 13: TMP tandem repeat with a linker composed of GPNG (IEGPTLRQWLAARAGPNGIEGPTLRQWLAARA; TPO-MIMETIC PEPTIDES)”, in assay [1] (TPO-dependent cell-proliferation assay, 32D cells transfected with c-Mpl, versus TMP monomer), the “increase in potency as compared to the monomer” value is listed as “about 100 fold”. For the same substance, the “decrease in activity versus the equivalent GGGG-linked analog” value in assay [1] (cell-proliferation assay, versus tandem repeat with 4-Gly linker) is > 10 fold and 10 fold.

As for “peptide 16: TMP tandem repeat in which the two Trp residues were replaced by Ala (IEGPTLRQWLAARAGGGGGGGGIEGPTLRQWLAARA; TPO-MIMETIC PEPTIDES)”, in assay [1] (setting [3]), the “in vitro bioactivity (in words)” value was “inactive”.

Take “21: TMP tandem repeat with potential glycosylation motif NGS in its 8-amino acid linker (IEGPTLRQWLAARAGGGNGSGGIEGPTLRQWLAARA; TPO-MIMETIC PEPTIDES) [compound 21]”: the “in vitro bioactivity (in words)” value in assay [1] (setting [3]) is “maintained high bioactivity; also recorded: activity comparable to that of the —(G)8— linked analog”.

Turning to “peptide 19: PEGylated peptide (SEQ ID NO: 3); Lys side chain in linker modified by 5 kDa PEG (IEGPTLRQWLAARAGGGK(PEG 5 kDa)GGGGIEGPTLRQWLAARA)”, in assay [1] (setting [3]), the “in vitro bioactivity (in words)” value is “even higher in vitro bioactivity as compared to their unpegylated counterparts”.

On to “IEGPTLRQWLAARA (TMP) [reference compound]”, for which the “in vitro bioactivity (in words)” value in assay [1] (setting [3]) is “relatively low biopotency”.
